{"source": "patent US20250340604A1", "about": "(ENKEFALOS BIOSCIENCES, published 2025)"}
{"target": "T1, human HER3/ErbB3 (Hu ErbB3), recombinant extracellular domain (human, UniProt P21860 20-643)", "T1 construct": "extracellular domain; Recombinant Fc fusion (R&D Systems) or His-tagged (Sino Biologicals)", "test": "phage selection and phage ELISA on coated receptor ECD"}
{"binder": "GGVCWWDKWVFPISRQCRRDSDCPGACICRGNGYCGSGSD (designed binder)", "note": "[CYC16]", "binding result": "binds"}
{"binder": "GGVCRHSYSQIPLWCRRDSDCPGACICRGNGYCGSGSD (designed binder)", "note": "[CYC15]", "binding result": "binds"}
{"target": "T2, mouse transferrin receptor (Mu TrfR), recombinant extracellular domain (mouse, UniProt Q62351 89-763)", "T2 construct": "extracellular domain; Recombinant Fc fusion (R&D Systems) or His-tagged (Sino Biologicals)", "T2 sequence (Q62351 89-763)": "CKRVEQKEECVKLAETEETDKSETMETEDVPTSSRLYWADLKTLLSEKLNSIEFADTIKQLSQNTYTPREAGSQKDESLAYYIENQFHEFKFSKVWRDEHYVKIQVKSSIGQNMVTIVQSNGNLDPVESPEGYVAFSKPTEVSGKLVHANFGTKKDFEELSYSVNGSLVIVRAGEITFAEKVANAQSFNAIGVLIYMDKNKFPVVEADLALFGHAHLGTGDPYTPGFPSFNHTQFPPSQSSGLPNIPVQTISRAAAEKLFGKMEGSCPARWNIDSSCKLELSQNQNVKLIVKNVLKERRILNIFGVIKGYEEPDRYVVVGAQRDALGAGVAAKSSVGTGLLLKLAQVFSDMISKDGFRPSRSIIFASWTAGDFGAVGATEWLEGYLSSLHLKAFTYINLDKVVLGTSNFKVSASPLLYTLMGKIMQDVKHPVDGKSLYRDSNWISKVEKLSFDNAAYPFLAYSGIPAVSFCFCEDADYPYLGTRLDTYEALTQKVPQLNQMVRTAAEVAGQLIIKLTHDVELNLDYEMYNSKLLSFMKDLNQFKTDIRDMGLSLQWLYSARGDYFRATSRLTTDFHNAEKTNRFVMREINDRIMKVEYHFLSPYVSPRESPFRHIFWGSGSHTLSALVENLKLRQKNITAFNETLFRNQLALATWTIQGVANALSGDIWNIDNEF", "test": "phage selection and phage ELISA on coated receptor ECD"}
{"binder": "GGVCAYVHDWYHHVMYCRRDSDCPGACICRGNGYCGSGSD (designed binder)", "note": "[CYC20]", "binding result": "binds"}
{"binder": "GGVCHNLFVIESILFWCRRDSDCPGACICRGNGYCGSGSD (designed binder)", "note": "[CYC23]", "binding result": "binds"}
{"binder": "GGVCTVWPFVWWGGVPCRRDSDCPGACICRGNGYCGSGSD (designed binder)", "note": "[CYC19]", "binding result": "binds"}
{"binder": "GGVCMHNSASHNIQMQCRRDSDCPGACICRGNGYCGSGSD (designed binder)", "note": "[CYC21]", "binding result": "binds"}
{"binder": "GGVCQTVFPMWPWYQLCRRDSDCPGACICRGNGYCGSGSD (designed binder)", "note": "[CYC22]", "binding result": "binds"}
{"target": "T3, human leptin receptor (Hu ObR), recombinant extracellular domain (human, UniProt P48357 22-839)", "T3 construct": "extracellular domain; Recombinant Fc fusion (R&D Systems) or His-tagged (Sino Biologicals)", "T3 sequence (looked up)": "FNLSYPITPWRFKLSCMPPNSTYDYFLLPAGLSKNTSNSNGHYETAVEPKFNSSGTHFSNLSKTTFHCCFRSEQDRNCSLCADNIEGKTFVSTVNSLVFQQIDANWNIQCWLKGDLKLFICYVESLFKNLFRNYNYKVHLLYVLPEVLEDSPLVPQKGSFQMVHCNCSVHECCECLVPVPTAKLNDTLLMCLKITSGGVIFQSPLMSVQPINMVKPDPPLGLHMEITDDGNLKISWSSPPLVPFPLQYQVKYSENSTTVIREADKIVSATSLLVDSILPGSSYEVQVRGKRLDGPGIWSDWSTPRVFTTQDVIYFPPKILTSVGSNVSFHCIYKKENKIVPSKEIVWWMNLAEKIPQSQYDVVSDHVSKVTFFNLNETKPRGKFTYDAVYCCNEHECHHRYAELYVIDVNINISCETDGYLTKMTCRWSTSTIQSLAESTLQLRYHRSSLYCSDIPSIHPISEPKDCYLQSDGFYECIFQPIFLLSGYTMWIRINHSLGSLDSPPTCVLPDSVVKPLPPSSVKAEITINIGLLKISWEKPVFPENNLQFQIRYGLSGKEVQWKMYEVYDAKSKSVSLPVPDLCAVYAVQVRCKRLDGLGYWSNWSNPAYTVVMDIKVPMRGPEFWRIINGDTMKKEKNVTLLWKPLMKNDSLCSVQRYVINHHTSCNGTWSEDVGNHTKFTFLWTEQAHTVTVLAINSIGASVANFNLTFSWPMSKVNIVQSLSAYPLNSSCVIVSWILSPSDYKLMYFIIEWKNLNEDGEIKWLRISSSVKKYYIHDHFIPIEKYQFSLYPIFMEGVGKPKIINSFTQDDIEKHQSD", "test": "phage selection and phage ELISA on coated receptor ECD"}
{"binder": "GGVCQSFFWWHSWFGVCRRDSDCPGACICRGNGYCGSGSD (designed binder)", "note": "[CYC2]", "binding result": "binds"}
{"binder": "GGVCYDWGWFWPFEQYCRRDSDCPGACICRGNGYCGSGSD (designed binder)", "note": "[CYC7]", "binding result": "binds"}
{"binder": "GGVCEWSDWFPYEFLFCRRDSDCPGACICRGNGYCGSGSD (designed binder)", "note": "[CYC12]", "binding result": "binds"}
{"binder": "GGVCHSQFWPWEWYQFCRRDSDCPGACICRGNGYCGSGSD (designed binder)", "note": "[CYC3]", "binding result": "binds"}
{"binder": "GGVCFLWFWYGFSRTLCRRDSDCPGACICRGNGYCGSGSD (designed binder)", "note": "[CYC14]", "binding result": "binds"}
{"binder": "GGVCYVDWPWTLTLWYCRRDSDCPGACICRGNGYCGSGSD (designed binder)", "note": "[CYC11]", "binding result": "binds"}
{"binder": "GGVCPTQTWWFWLPAQCRRDSDCPGACICRGNGYCGSGSD (designed binder)", "note": "[CYC10]", "binding result": "binds"}
{"binder": "GGVCPWPKWTYMAQKYCRRDSDCPGACICRGNGYCGSGSD (designed binder)", "note": "[CYC1]", "binding result": "binds"}
{"binder": "GGVCVQPWYSWFMEQGCRRDSDCPGACICRGNGYCGSGSD (designed binder)", "note": "[CYC9]", "binding result": "binds"}
{"binder": "GGVCWRWTPKIWVLEEMSSCSDCPGACICRGNGYCGSGSD (designed binder)", "note": "[CYC4]", "binding result": "binds"}
{"binder": "GGVCWQGMMLFFVGEKCRRDSDCPGACICRGNGYCGSGSD (designed binder)", "note": "[CYC5]", "binding result": "binds"}
{"binder": "GGVCSDRWDWMFATWLCRRDSDCPGACICRGNGYCGSGSD (designed binder)", "note": "[CYC8]", "binding result": "binds"}
{"binder": "GGVCGWFYWYHKWFGPCRRDSDCPGACICRGNGYCGSGSD (designed binder)", "note": "[CYC6]", "binding result": "binds"}
{"binder": "GGVCPTAMWFDWFTVYCRRDSDCPGACICRGNGYCGSGSD (designed binder)", "note": "[CYC13]", "binding result": "binds"}
{"target": "T4, human receptor for advanced glycation-end products (Hu RAGE), recombinant extracellular domain (human, UniProt Q15109 23-342)", "T4 construct": "extracellular domain; Recombinant Fc fusion (R&D Systems) or His-tagged (Sino Biologicals)", "T4 sequence (Q15109 23-342)": "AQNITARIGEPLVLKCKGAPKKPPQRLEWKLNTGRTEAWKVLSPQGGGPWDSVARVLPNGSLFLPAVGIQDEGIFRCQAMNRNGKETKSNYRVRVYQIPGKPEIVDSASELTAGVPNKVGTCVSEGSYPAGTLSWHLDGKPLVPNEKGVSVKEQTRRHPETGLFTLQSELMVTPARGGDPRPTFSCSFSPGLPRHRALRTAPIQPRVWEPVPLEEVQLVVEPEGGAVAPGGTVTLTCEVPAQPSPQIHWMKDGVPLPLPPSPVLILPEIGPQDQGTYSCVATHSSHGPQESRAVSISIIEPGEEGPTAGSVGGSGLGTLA", "test": "phage selection and phage ELISA on coated receptor ECD"}
{"binder": "GGVCVSNFWFMHWFGVCRRDSDCPGACICRGNGYCGSGSD (designed binder)", "note": "[CYC29]", "binding result": "binds"}
{"binder": "GGVCHVGYWWHIWMGACRRDSDCPGACICRGNGYCGSGSD (designed binder)", "note": "[CYC28]", "binding result": "binds"}
{"target": "T5, human transferrin receptor (Hu TrfR), recombinant extracellular domain (human, UniProt P02786 89-760)", "T5 construct": "extracellular domain; Recombinant Fc fusion (R&D Systems) or His-tagged (Sino Biologicals); also called human TfR", "T5 sequence (P02786 89-760)": "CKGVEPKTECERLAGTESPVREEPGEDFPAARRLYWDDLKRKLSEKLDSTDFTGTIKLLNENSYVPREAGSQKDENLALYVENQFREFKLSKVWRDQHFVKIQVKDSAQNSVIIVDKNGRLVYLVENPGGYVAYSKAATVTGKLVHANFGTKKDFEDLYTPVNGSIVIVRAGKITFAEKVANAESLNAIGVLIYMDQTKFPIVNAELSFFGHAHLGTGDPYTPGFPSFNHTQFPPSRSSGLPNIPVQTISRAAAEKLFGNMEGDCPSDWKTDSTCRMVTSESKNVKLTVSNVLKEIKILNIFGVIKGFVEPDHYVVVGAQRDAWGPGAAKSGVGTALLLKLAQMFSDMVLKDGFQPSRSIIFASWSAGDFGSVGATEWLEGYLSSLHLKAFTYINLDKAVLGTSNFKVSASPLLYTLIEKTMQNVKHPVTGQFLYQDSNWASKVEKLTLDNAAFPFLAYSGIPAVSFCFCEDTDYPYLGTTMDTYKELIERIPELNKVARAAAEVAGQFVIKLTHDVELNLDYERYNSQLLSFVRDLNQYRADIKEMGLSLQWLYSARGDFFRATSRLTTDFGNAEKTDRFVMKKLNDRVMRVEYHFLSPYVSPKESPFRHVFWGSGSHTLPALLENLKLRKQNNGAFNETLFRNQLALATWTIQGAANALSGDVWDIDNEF", "test": "phage selection and phage ELISA on coated receptor ECD"}
{"binder": "GGVCKALWYMGWGTCRRDSDCPGACICRGNGYCGSGSD (designed binder)", "note": "[CYC24]", "binding result": "binds"}
{"binder": "GGVCKQNWLPGWGTCRRDSDCPGACICRGNGYCGSGSD (designed binder)", "note": "[CYC25]", "binding result": "binds"}
{"binder": "GGVCLVSQWHIESWGQCRRDSDCPGACICRGNGYCGSGSD (designed binder)", "note": "[CYC41]", "binding result": "binds"}
{"binder": "GGVCEYFRWHLDSWGECRRDSDCPGACICRGNGYCGSGSD (designed binder)", "note": "[CYC40]", "binding result": "binds"}
{"binder": "GGVCLYEAWHLPSWGQCRRDSDCPGACICRGNGYCGSGSD (designed binder)", "note": "[CYC44]", "binding result": "binds"}
{"binder": "GGVCDPRWLAGWGSCRRDSDCPETCICRGNGYCASGYD (designed binder)", "note": "[CYC18]", "binding result": "binds"}
{"binder": "GGVCQMVSEHWVARVWCRRDSDCPGACICRGNGYCGSGSD (designed binder)", "note": "[CYC45]", "binding result": "binds"}
{"binder": "GGVCRYQEWHMESWGSCRRDSDCPGACICRGNGYCGSGSD (designed binder)", "note": "[CYC43]", "binding result": "binds"}
{"binder": "GGVCQEERWHMHSWGPCRRDSDCPGACICRGNGYCGSGSD (designed binder)", "note": "[CYC42]", "binding result": "binds"}
